The values that follow come from patent US9221915 (dated 2015).

Read-outs that look alike come from different tables or passages of the source. Bounds are passed on as bounds.

Experiment [1] concerns the target T1, cynomolgus ALK-1 cell surface (cynomolgus monkey).
T1 chain: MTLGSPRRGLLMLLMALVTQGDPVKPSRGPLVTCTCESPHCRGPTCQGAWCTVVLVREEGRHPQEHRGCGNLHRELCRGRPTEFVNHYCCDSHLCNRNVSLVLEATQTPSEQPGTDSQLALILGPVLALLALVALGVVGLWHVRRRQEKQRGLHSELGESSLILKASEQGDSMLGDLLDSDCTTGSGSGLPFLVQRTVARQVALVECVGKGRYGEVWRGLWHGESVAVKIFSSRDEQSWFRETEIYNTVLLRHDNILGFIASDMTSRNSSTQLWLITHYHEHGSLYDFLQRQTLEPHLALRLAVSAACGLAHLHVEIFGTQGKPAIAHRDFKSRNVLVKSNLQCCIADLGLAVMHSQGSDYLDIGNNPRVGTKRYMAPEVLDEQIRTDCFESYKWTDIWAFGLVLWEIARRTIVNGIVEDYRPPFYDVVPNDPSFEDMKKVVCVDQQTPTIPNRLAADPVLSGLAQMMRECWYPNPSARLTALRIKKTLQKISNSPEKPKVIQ
As to the kind of experiment: FACS. (Flow cytometry measures light scatter and fluorescence of single cells or particles in a stream.)

The target of experiment [2] is T1, cynomolgus ALK-1 cell surface. As to the kind of experiment: FACS.
Another experiment addresses T2, rat ALK-1 cell surface (rat, UniProt P80203).
T2 chain: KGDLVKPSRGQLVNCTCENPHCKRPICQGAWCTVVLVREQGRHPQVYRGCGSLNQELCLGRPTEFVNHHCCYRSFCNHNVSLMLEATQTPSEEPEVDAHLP
The experiment is described as follows: FACS.

In a further experiment the target is human ALK-1/Fc (human, UniProt P37023). As to the kind of experiment: SPR, bivalent. Background: In SPR one partner is held on a chip, and binding of the other changes the refractive index at the surface.
The target of a further experiment is T3, cynomolgus ALK-1/Fc (cynomolgus monkey).
T3 chain: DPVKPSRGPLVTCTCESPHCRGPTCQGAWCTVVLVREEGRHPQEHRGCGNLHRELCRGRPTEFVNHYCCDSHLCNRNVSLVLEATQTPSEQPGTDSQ
As to the kind of experiment: SPR, bivalent.

B1: 1.12.1 (antibody, V domains shown)
VH: QVQLQESGPGLVKPSQTLSLTCTVSGGSMSSGEYYWNWIRQHPGKGLEWIGYIYYSGSTYYNPSLKSRVTISVDTSKNQFSLKLSSVTAADTAVYYCARESVAGFDYWGQGTLVTVSS
VL: not shown
For the molecule B1, the Kd in experiment [1] is 2 nM; in experiment [2], 2 nM; in the experiment with rat ALK-1 cell surface, > 100 nM.

B2: 1.12.1(D19A) (antibody, V domains shown)
VH: QVQLQESGPGLVKPSQTLSLTCTVSGGSMSSGEYYWNWIRQHPGKGLEWIGYIYYSGSTYYNPSLKSRVTISVDTSKNQFSLKLSSVTAADTAVYYCARESVAGFDYWGQGTLVTVSS
VL: not shown
B2: the Kd in experiment [1] stood at 3.8 nM.

B3: 4.58.2 (antibody, V domains shown)
VH: QVQLQESGPGLVKPSQTLSLTCTVSGGSISSGDYYWNWIRQHPGKGLEWIGYIYYSGSTYYNPSLKSRVTISVATSKNQFSLKLSSVTAADTAVYYCAREATEGFDYWGQGTLVTVSS
VL: EIVLTQSPGTLSLSPGERATLSCRASQSVSTTYLAWYQQKPGQAPRLLIYGASSRATGIPDRFSGSGSGTDFTLTISRLEPEDFALYYCQHYGTSSITFGQGTRLEIK
Turning to B3, the Kd with human ALK-1/Fc was 0.04 nM; in the experiment with cynomolgus ALK-1/Fc, 0.13 nM.

B4: 4.24.2 (antibody, V domains shown)
VH: QVQLQESGPGLVKPSQTLSLTCTVSGGSISSNDYYWNWIRQHPGKGLEWIGYIYYSGSTYYNPSLKSRVTISVDTSKNQFSLKLSSVTAADTAVYYCARESTDGMDVWGQGTTVTVSS
VL: ENVLTQSPGTLSLSPGERATLSCRASQSVSSNYLAWYQQKPGQAPRLLIYGASSGATGIPDRFSGSGSGTDFTLTISRLEPEDFAVYYCQHYGSSPITFGQGTRLEIK
For the molecule B4, the Kd with human ALK-1/Fc came to 0.07 nM; in the experiment with cynomolgus ALK-1/Fc, 0.43 nM.

B5: 4.68.1 (antibody, V domains shown)
VH: QVQLQESGPGLVKPSQTLSLTCTVSGGSISSGDYYWNWIRQHPGKGLEWIGYIYYSGSTYYNPSLKSRVTISVDTSKNQFSLKLSSVTAADTAVYYCAREDIAGFDPWGQGTLVTVSS
VL: not shown
Turning to B5, the Kd in experiment [2] was determined as 9 nM.

B6: 4.68.2 (antibody, V domains shown)
VH: QVQLQESGPGLVKPSQTLSLTCTVSGGSISSGDYYWNWIRQHPGKGLEWIGYIYYSGSTYYNPSLKSRVTISVDTSKNQFSLKLSSVTAADTAVYYCAREDIAGFDPWGQGTLVTVSS
VL: not shown
With B6, the Kd with cynomolgus ALK-1/Fc stood at 0.32 nM.

B7: 4.24.1 (antibody, V domains shown)
VH: QVQLQESGPGLVKPSQTLSLTCTVSGGSISSNDYYWNWIRQHPGKGLEWIGYIYYSGSTYYNPSLKSRVTISVDTSKNQFSLKLSSVTAADTAVYYCARESTDGMDVWGQGTTVTVSS
VL: ENVLTQSPGTLSLSPGERATLSCRASQSVSSNYLAWYQQKPGQAPRLLIYGASSGATGIPDRFSGSGSGTDFTLTISRLEPEDFAVYYCQHYGSSPITFGQGTRLEIK
B7 displayed a Kd in experiment [2] of 3.1 nM.

B8: 1.162.1 (antibody, V domains shown)
VH: QVQLQESGPGLVKPSQTLSLICTVSGGSISSGEYYWSWIRQHPGKGLEWIGYIYYSGSTYYNPSLKSRLTISVDTSKNQFSLKLSSVTAADTAVYYCAREGIGAFDIWGQGTMVTVSS
VL: EIVLTQSPGTLSLSPGERATLSCRASQSVSSSYLAWYQQKPGQAPRLLIYGASSRATGIPDRFSGSGSGTDFTLTIIRLDPEDFAVYYCQRYGSSPITFGQGTRLEIK
Take B8: the Kd in the experiment with human ALK-1/Fc was found to be 0.018 nM; in experiment [2] it was 3 nM; in the experiment with cynomolgus ALK-1/Fc it was 0.062 nM.

B9: 4.72.2 (antibody, V domains shown)
VH: QVQLQESGPGLVKPSQTLSLTCTVSGGSISSGEYYWSWIRQHPGKGLEWIGYIFYSGSTYYNPSLKSRVTISLDTSKNQFSLKLSSVTAADTAVYYCARESTDGMDVWGQGTTVTVSS
VL: EIVLTQSPGTLSLSPGERATLSCRASQSVSSSYLAWYQRKPGQAPRLLIYGVSSRATGIPDRFSGSGSGTDFTLTISRLEPEDFAVYYCQQYGSSMITFGQGTRLEIK
B9: the Kd in the experiment with human ALK-1/Fc turned out to be 0.073 nM; with cynomolgus ALK-1/Fc, 0.28 nM.

B10: 5.13.1 (antibody, V domains shown)
VH: QVQLQESGPGLVKPSQTLSLTCTVSGGSISSGDYYWNWIRQHPGKGLEWIGYIYYSGSTYYNPSLKSRVTISVDTSKNQFSLKLSSVTAADTAVYYCAREGLEAFDIWGQGTMVTDSS
VL: EIVLTQSPGTLSLSPGERATLSCRASQSVSSSYLAWYQQKPGQAPRLLIYDASSRATGIPDRFSGSGSGTDFTLTISRLEPEDFAVYYCQHYGSSLLTFGGGTKVEIK
In the case of B10, the Kd in experiment [2] worked out at 1.6 nM.

B11: 1.14.2 (antibody, V domains shown)
VH: QVQLQESGPGLVKPSETLSLTCTVSGGSVSSGDYYWNWIRQPPGKGLEWIGYIYYSGSTNYNPSLKSRVTISVDTSKNQFSLKLSSVTAADTAVYYCAREAVSAFDYWGQGTLVTVSS
VL: EIVLTQSPGTLSLSPGERATLSCRASQSVSSTYLAWHQQKPGQAPRLLIYGVSSRASGVPDRFSGSGSGTDFTLTISRLEPEDFAVYYCQQYGSSPITFGQGTRLEIK
B11: the figures for the Kd with human ALK-1/Fc and in the experiment with cynomolgus ALK-1/Fc were 0.076 nM and 0.28 nM, respectively.

B12: 5.13.3 (antibody, V domains shown)
VH: QVQLQESGPGLVKPSQTLSLTCTVSGGSISSGDYYWNWIRQHPGKGLEWIGYIYYSGSTYYNPSLKSRVTISVDTSKNQFSLKLSSVTAADTAVYYCAREGLEAFDIWGQGTMVTDSS
VL: EIVLTQSPGTLSLSPGERATLSCRASQSVSSSYLAWYQQKPGQAPRLLIYDASSRATGIPDRFSGSGSGTDFTLTISRLEPEDFAVYYCQHYGSSLLTFGGGTKVEIK
As to B12, in the experiment with cynomolgus ALK-1/Fc, the Kd was determined as 0.19 nM.

B13: 4.72.1 (antibody, V domains shown)
VH: QVQLQESGPGLVKPSQTLSLTCTVSGGSISSGEYYWSWIRQHPGKGLEWIGYIFYSGSTYYNPSLKSRVTISLDTSKNQFSLKLSSVTAADTAVYYCARESTDGMDVWGQGTTVTVSS
VL: EIVLTQSPGTLSLSPGERATLSCRASQSVSSSYLAWYQRKPGQAPRLLIYGVSSRATGIPDRFSGSGSGTDFTLTISRLEPEDFAVYYCQQYGSSMITFGQGTRLEIK
In turn, B13 showed a Kd in experiment [2] of 3.8 nM.

B14: 4.62.1 (antibody, V domains shown)
VH: QVQLQESGPGLVKPSQTLSLTCTVSGGSISSGDYYWNWIRQHPGKGLEWIGYIYYSGSTYYNPSLKSRVTISVDTSKNQFSLKLSSVTAADTAVYYCARESTDGMDVWGQGTTVTVSS
VL: not shown
On to B14, for which the Kd in experiment [2] was found to be 0.78 nM; in the experiment with cynomolgus ALK-1/Fc it was 0.019 nM.

B15: 4.38.1 (antibody, V domains shown)
VH: QVQLQESGPGLVKPSQTLSLTCTVSGGSISSGDYYWSWIRQHPGKGLEWIGYIYYSGSTYYNPSLKSRVTISIDTSKNQFSLKLSSVTAADTAVYYCARERDYGGGFDYWGQGTLVTVSS
VL: not shown
As to B15, the Kd with human ALK-1/Fc was 0.1 nM; in the experiment with cynomolgus ALK-1/Fc, 0.15 nM.

B16: 1.183.2 (antibody, V domains shown)
VH: QVQLQESGPGLVKPSETLSLTCTVSGGSISSYYWSWIRQPPGKGLEWIGYIYYSGSTNYNPSLKSRVTISVDTSKNQFSLKLSSVTAADTAVYYCAREDDSSGCPYFDYWGQGTLVTASS
VL: EIVMTQSPATLSVSPGERATLSCRASQSVSSNLAWYQQKPGQAPRVLIYGASTRATGIPVRFSGSGSGTEFTLTISSLQSEDFAVYYCQQYNNWPFTFGPGTKVDIK
B16: the Kd with human ALK-1/Fc was found to be 0.22 nM; in the experiment with cynomolgus ALK-1/Fc, 1.8 nM.
